Data published in the supplement of paper PMC9112550, “Optimization of the antimicrobial peptide Bac7 by deep mutational scanning” (BMC Biology, 2022).

Test system: Escherichia coli TOP10
Assay: shrunken log2 fold change of peptide-encoding DNA abundance (4.5 h post-induction vs induction); higher = less antimicrobial activity (less host growth inhibition)
Conditions: time post-induction: 4.5 h; library: site-saturation at positions 5, 18, 19, 20
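Further: peptides expressed intracellularly from a pBAD plasmid library in pooled LB shake-flask culture, induced with 0.3% L-arabinose, DNA abundance read by NGS, three biological replicates, DESeq2 with apeglm shrinkage.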

Sequence | shrunken log2 fold change
RRIRFRPPRLPRPRPRPQRHPRP | -0.0437
RRIRMRPPRLPRPRPRPRFDPRP | 0.364
RRIRERPPRLPRPRPRPFKPPRP | -0.22
RRIRTRPPRLPRPRPRPSERPRP | -0.186
RRIRIRPPRLPRPRPRPDLLPRP | -0.634
RRIRHRPPRLPRPRPRPAEDPRP | 0.262
RRIRMRPPRLPRPRPRPMSFPRP | -0.0179
RRIRDRPPRLPRPRPRPTPRPRP | 0.792
RRIRSRPPRLPRPRPRPSRNPRP | -0.129
RRIRPRPPRLPRPRPRPFRMPRP | -0.134
RRIRLRPPRLPRPRPRPQINPRP | -0.506
RRIRMRPPRLPRPRPRPVTDPRP | -0.0129
RRIRMRPPRLPRPRPRPFYCPRP | -0.118
RRIRTRPPRLPRPRPRPHQYPRP | -0.259
RRIRSRPPRLPRPRPRPSLNPRP | -0.142
RRIRYRPPRLPRPRPRPKDFPRP | 0.00489
RRIRYRPPRLPRPRPRPIHMPRP | -0.0796
RRIRKRPPRLPRPRPRPFLKPRP | 0.0443
RRIRIRPPRLPRPRPRPSHNPRP | -1.06
RRIRYRPPRLPRPRPRPFYEPRP | -1.2
RRIRGRPPRLPRPRPRPFTRPRP | 0.0912
RRIRPRPPRLPRPRPRPDFDPRP | -0.03
RRIRPRPPRLPRPRPRPLPSPRP | 0.0677
RRIRTRPPRLPRPRPRPRWWPRP | 0.533
RRIRWRPPRLPRPRPRPKNRPRP | 0.017

Sequence | shrunken log2 fold change
RRIRHRPPRLPRPRPRPKEQPRP | -0.00965
RRIRYRPPRLPRPRPRPSPCPRP | -0.8
RRIRCRPPRLPRPRPRPLCYPRP | -0.439
RRIRYRPPRLPRPRPRPGNGPRP | -0.234
RRIRVRPPRLPRPRPRPALKPRP | 0.253
RRIRFRPPRLPRPRPRPIPIPRP | -0.648
RRIRIRPPRLPRPRPRPCQMPRP | -0.111
RRIRYRPPRLPRPRPRPHNFPRP | -0.118
RRIRLRPPRLPRPRPRPTPCPRP | 0.152
RRIRQRPPRLPRPRPRPLVSPRP | 0.00785
RRIRHRPPRLPRPRPRPKQPPRP | -0.00478
RRIRSRPPRLPRPRPRPKSFPRP | 0.172
RRIRDRPPRLPRPRPRPKENPRP | 0.0579
RRIRDRPPRLPRPRPRPWCTPRP | 0.107
RRIRVRPPRLPRPRPRPMIYPRP | -0.38
RRIRTRPPRLPRPRPRPEHLPRP | -0.00973
RRIRKRPPRLPRPRPRPIQQPRP | 0.25
RRIRMRPPRLPRPRPRPVFPPRP | 0.0941
RRIRRRPPRLPRPRPRPLIWPRP | 0.192
RRIRDRPPRLPRPRPRPGFAPRP | 0.992
RRIRQRPPRLPRPRPRPAPSPRP | 0.492
RRIRLRPPRLPRPRPRPMWHPRP | 0.203
RRIRKRPPRLPRPRPRPGFCPRP | 0.243
RRIRRRPPRLPRPRPRPHNWPRP | -0.131
RRIRKRPPRLPRPRPRPRQAPRP | 1.79

Sequence | shrunken log2 fold change
RRIRVRPPRLPRPRPRPECFPRP | 0.195
RRIRVRPPRLPRPRPRPHRFPRP | 0.0259
RRIRVRPPRLPRPRPRPYWVPRP | -0.0928
RRIRWRPPRLPRPRPRPGTTPRP | 0.0295
RRIRQRPPRLPRPRPRPGVYPRP | 0.0572
RRIRQRPPRLPRPRPRPHLSPRP | -0.00594
RRIRSRPPRLPRPRPRPKVMPRP | 0.0101
RRIRQRPPRLPRPRPRPVPHPRP | -0.0417
RRIRIRPPRLPRPRPRPTCHPRP | -0.467
RRIRERPPRLPRPRPRPHEGPRP | 0.127
RRIRHRPPRLPRPRPRPNCIPRP | -0.753
RRIRSRPPRLPRPRPRPEKQPRP | 0.1
RRIRPRPPRLPRPRPRPFMCPRP | -0.164
RRIRARPPRLPRPRPRPQRWPRP | 0.172
RRIRIRPPRLPRPRPRPPGQPRP | -0.125
RRIRCRPPRLPRPRPRPHWQPRP | -0.365
RRIRARPPRLPRPRPRPACEPRP | 0.879
RRIRSRPPRLPRPRPRPETSPRP | 0.358
RRIRLRPPRLPRPRPRPKIMPRP | -0.314
RRIRERPPRLPRPRPRPWHCPRP | -0.0723
RRIRFRPPRLPRPRPRPYMNPRP | -0.818
RRIRYRPPRLPRPRPRPGLAPRP | 0.323
RRIRARPPRLPRPRPRPVRIPRP | 0.00598
RRIRGRPPRLPRPRPRPPAEPRP | 1.64
RRIRPRPPRLPRPRPRPMKLPRP | -0.0874

Sequence | shrunken log2 fold change
RRIRARPPRLPRPRPRPLFEPRP | 0.629
RRIRRRPPRLPRPRPRPCKAPRP | 0.122
RRIRVRPPRLPRPRPRPDNMPRP | -0.868
RRIRQRPPRLPRPRPRPCWGPRP | 0.0281
RRIRYRPPRLPRPRPRPSYVPRP | -1.29
RRIRKRPPRLPRPRPRPVIIPRP | 0.0356
RRIRHRPPRLPRPRPRPNITPRP | -0.489
RRIRLRPPRLPRPRPRPTVGPRP | 0.0924
RRIRWRPPRLPRPRPRPAEVPRP | 0.204
RRIRLRPPRLPRPRPRPNPRPRP | 0.304
RRIRMRPPRLPRPRPRPINLPRP | -0.0139
RRIRSRPPRLPRPRPRPWFTPRP | -0.253
RRIRKRPPRLPRPRPRPQDWPRP | 0.413
RRIRMRPPRLPRPRPRPFDGPRP | 0.136
RRIRCRPPRLPRPRPRPNKKPRP | 0.0294
RRIRSRPPRLPRPRPRPGHDPRP | -0.0796
RRIRDRPPRLPRPRPRPPCQPRP | 0.029
RRIRVRPPRLPRPRPRPLSRPRP | -0.132
RRIRVRPPRLPRPRPRPTRRPRP | 0.529
RRIRGRPPRLPRPRPRPCQTPRP | 0.0774
RRIRHRPPRLPRPRPRPWFNPRP | -0.153
RRIRTRPPRLPRPRPRPYRQPRP | -0.00615
RRIRQRPPRLPRPRPRPGDEPRP | 0.021
RRIRFRPPRLPRPRPRPKVEPRP | 0.114
RRIRRRPPRLPRPRPRPCQCPRP | 0.0262

Sequence | shrunken log2 fold change
RRIRYRPPRLPRPRPRPHDHPRP | 1.33
RRIRIRPPRLPRPRPRPWQNPRP | 0.00641
RRIRMRPPRLPRPRPRPYMSPRP | -0.00176
RRIRGRPPRLPRPRPRPILSPRP | 0.516
RRIRTRPPRLPRPRPRPQYKPRP | -1.04
RRIRKRPPRLPRPRPRPAAWPRP | 0.443
RRIRGRPPRLPRPRPRPCRHPRP | 0.0672
RRIRGRPPRLPRPRPRPISFPRP | 0.0122
RRIRTRPPRLPRPRPRPVWWPRP | 0.423
RRIRLRPPRLPRPRPRPDDFPRP | -0.0359
RRIRRRPPRLPRPRPRPMSTPRP | 0.231
RRIRCRPPRLPRPRPRPRSRPRP | 0.299
RRIRPRPPRLPRPRPRPTVYPRP | -0.296
RRIRGRPPRLPRPRPRPVMVPRP | 0.128
RRIRIRPPRLPRPRPRPESRPRP | 0.0553
RRIRTRPPRLPRPRPRPKLCPRP | 0.0416
RRIRCRPPRLPRPRPRPCKFPRP | -0.431
RRIRPRPPRLPRPRPRPPDQPRP | 0.601
RRIRGRPPRLPRPRPRPQMLPRP | -0.0638
RRIRCRPPRLPRPRPRPMSSPRP | 0.0481
RRIRDRPPRLPRPRPRPQMTPRP | 0.103
RRIRRRPPRLPRPRPRPHQGPRP | 0.0901
RRIRYRPPRLPRPRPRPCMPPRP | -0.123
RRIRTRPPRLPRPRPRPMNRPRP | -0.0804
RRIRKRPPRLPRPRPRPKLYPRP | 0.164
